The supplement of paper PMC11865577

Legend:
Assay in all cases: pull-down binding Z-score (relative to library population); higher = stronger binding
[1] = system: TO-N3-2 (biotin conjugate); details: RNA library: Library-2
Summary of the method: (§1)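 The RNA library, end-labelled with Cy5 or Cy3, was heat-folded in phosphate/NaCl/KCl buffer, and 1 μg was incubated at 25 °C for 60 min with streptavidin beads carrying 100 pmol of biotin-conjugated small molecule. Hot SDS released the bound RNA, which was then hybridised to a DNA barcode microarray for 20 h at 55.5 °C. For scoring binding, signal from beads alone was subtracted, replicate barcoded probes were averaged after discarding the highest and lowest, and each value was turned into a Z-score from the library mean and standard deviation.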

[2] = system: TO-N3 (biotin conjugate); details: RNA library: Library-2
Summary of the method: as §1

[3] = system: TO-3-N3 (biotin conjugate); details: RNA library: Library-2
Summary of the method: as §1

[4] = system: G-clamp-N3 (biotin conjugate); details: RNA library: Library-1 (pre-miRNA loops + repeats)
Summary of the method: as §1

[5] = system: TO-3-N3-2 (biotin conjugate); details: RNA library: Library-2
Summary of the method: as §1

Row | Sequence | pull-down binding Z-score [1] | pull-down binding Z-score [2] | pull-down binding Z-score [3] | pull-down binding Z-score [4] | pull-down binding Z-score [5]
1 | GGGCUUUCUGGUUUUAUUUUAAGCCC [hsa-mir-186] | -0.494 | 0.261 | 0.594 | 0.465 | 0.0672
2 | GGGGAGAGGGACACGCCCUGGGCUCUGCCCAGGGUGCAGCCGGACUGACUGAG [hsa-mir-1225] | 1.99 | 1.95 | 1.55 | 1.58 | 1.1
3 | GGGGAUGGACUGGAAGUGGGCAGCAUGGAGCUGACCUUCAUCAUGGCUUGGCCAACAUAAUGCCUC [hsa-mir-1236] | 1.38 | 1.98 | 1.72 | -0.0946 | 1.33
4 | GGGGCCCUACUUUAAGGGCCCU [hsa-mir-8087] | -0.706 | 0.868 | 0.997 | 1.03 | 0.194
5 | GGGGCCUGUGGUCCC [hsa-mir-1268a] | -0.675 | -0.282 | -0.0124 | 0.885 | -0.144
6 | GGGGCUCUU [hsa-mir-4634] | 0.21 | 0.365 | 0.0873 | -0.697 | 0.0655
7 | GGGGCUGAGGCUGAGUCUUCCUCCC [hsa-mir-6756] | 1.53 | 0.806 | 0.154 | 0.713 | 0.101
8 | GGGGCUGGCUGGGUCUGGUAGUGGGCAUCAGCUGGCCCU [hsa-mir-1207] | 1.22 | 2.6 | 2.53 | 2 | 1.51
9 | GGGGCUGGUUGUCUA [hsa-mir-6080] | 0.516 | 0.377 | 0.297 | 0.388 | -0.165
10 | GGGGGCAGGCAGGGGAUUGGCUAAGAACCUGACUCUUGC [hsa-mir-7703] | 1.75 | 2.48 | 2.18 | -0.0197 | 1.44
11 | GGGGGCAGGCUGCCACCUCCUG [hsa-mir-8089] | 1.36 | 1.89 | 1.5 | -0.161 | 0.599
12 | GGGGGUGGCCGGGGCUGACCCU [hsa-mir-939] | 2.08 | 2.56 | 2.48 | 0.0126 | 1.8
13 | GGGGUAGAAGCCACCCG [hsa-mir-4466] | 1.46 | 0.492 | 0.149 | 0.458 | 0.0166
14 | GGGGUCUUGCUCUAUU [hsa-mir-6088] | 0.111 | 0.572 | 0.523 | 0.123 | 0.136
15 | GGGGUGGCUGCGGGCCUUCUGAAGGUCUCCC [hsa-mir-662] | 1.24 | 0.946 | 0.427 | 0.76 | 0.448
16 | GGGGUUUUUGCCUCCAACUGACUCC [hsa-mir-155] | -0.135 | -0.292 | -0.366 | -0.504 | -0.283
17 | GGGUCAGGUCUGCAGCCUUGUAUCUGCUGAUCC [hsa-mir-6881] | -0.107 | -0.234 | -0.183 | -0.0593 | -0.227
18 | GGGUCAGUGGCAGAGCCAGGCAGAUGCUGACCC [hsa-mir-6832] | 0.72 | 0.45 | 0.349 | 2.93 | 0.267
19 | GGGUCCUAAGGUGUGUCCUC [hsa-mir-1976] | 0.812 | 0.25 | -0.224 | -0.979 | -0.0978

Row | Sequence | pull-down binding Z-score [1] | pull-down binding Z-score [2] | pull-down binding Z-score [3] | pull-down binding Z-score [4] | pull-down binding Z-score [5]
20 | GGGUCGUGGGAAAGUGUUGACCC [hsa-mir-4655] | 0.588 | 0.5 | 0.166 | 1.79 | 0.276
21 | GGGUGAGAGUGCUUUCUGAAUGCAGUGCACCC [hsa-mir-500b] | 0.985 | 0.52 | 0.297 | 0.8 | 0.131
22 | GGGUGAUACACAAGCCUGACCCUCCC [hsa-mir-6793] | 0.954 | 0.416 | 0.244 | -0.976 | 0.55
23 | GGGUGGGCGGGGGCGGCCGGUGGGAACCCCGCCCCGCCCCGCGCCCGCACUCACCC [hsa-mir-7108] | 4.08 | 5.22 | 6.31 | 0.489 | 6.86
24 | GGGUGUAUGGUAUAGGGGUAGCCU [hsa-mir-3137] | 2.42 | 2.5 | 2.13 | 3.31 | 1.54
25 | GGGUUCAAUAGAUUGCUUUAGCUGAAGCAAGCCU [hsa-mir-8054] | -0.201 | 0.00977 | 0.125 | -0.803 | 0.131
26 | GGGUUGCAUCCUAAGCUGUGCUGGAGCUUCCC [hsa-mir-623] | 0.682 | 0.877 | 0.567 | -0.84 | 0.384
27 | GGUAAGGUCUUUCAGCC [hsa-mir-7150] | 0.413 | 0.622 | 0.648 | 0.213 | 0.105
28 | GGUACUUUAUAAUUUCAAAAAGUCCC [hsa-mir-361] | -1.41 | -1.51 | -1.13 | -0.194 | -0.356
29 | GGUAGAGAUGAUUUUUCCUACU [hsa-mir-5003] | 0.226 | 1.78 | 1.76 | 0.245 | 0.65
30 | GGUAGGUUACGUCAUGCUGUUCUACC [hsa-mir-140] | 0.193 | -0.0663 | -0.251 | 0.599 | -0.139
31 | GGUAUGGAUUCUGUUGUUUUGGCAACAUUCU [hsa-mir-8088] | -0.244 | -0.328 | -0.382 | 0.269 | 0.124
32 | GGUCAGGUGGUGCCCUCCUUCCAUGGGUAGAGCCAGAGAUGGUGGGUUCUGGCU [hsa-mir-6131] | 2.25 | 1.16 | 0.869 | 0.859 | 0.142
33 | GGUCUGAGCCCAUGUGUGGACCUAGGUCUGCUGUUAAACUGACU [hsa-mir-6831] | 0.647 | 0.492 | 0.286 | -0.752 | 0.106
34 | GGUGCAAAGCCUGCCCGCCCC [hsa-mir-5090] | 1.09 | 0.254 | -0.134 | -0.81 | -0.136
35 | GGUGCAGUCAGUCCUAGCUC [hsa-mir-3135b] | 1.06 | 0.224 | -0.343 | -1.49 | 0.0356
36 | GGUGGCAAUCAAGGUCUAGCCACC [hsa-mir-4733] | 0.228 | 0.287 | 0.369 | 1.02 | 0.265
37 | GGUGGGCCUCUGCUCUGGCCCCUCC [hsa-mir-1343] | 0.301 | 0.0649 | 0.0146 | 0.11 | -0.315
